Assay results as given in PMC3938669, “Inhibition of Hepatitis C Virus Infection by DNA Aptamer against NS2 Protein”.

biological target: NS2 (recombinant) (Hepatitis C virus JFH1 (genotype 2a), UniProt Q99IB8 814-1030); test: ELONA; binding retained with excess yeast tRNA; ELONA: biotin-aptamer on streptavidin plates, protein 30 min at 37 C; washes PBS, 1 mM MgCl2, 0.1% BSA, 0.05% Tween-20; pH not stated; details: tags: N-terminal His (pET-28b), label: biotin
Sequence (Q99IB8 814-1030): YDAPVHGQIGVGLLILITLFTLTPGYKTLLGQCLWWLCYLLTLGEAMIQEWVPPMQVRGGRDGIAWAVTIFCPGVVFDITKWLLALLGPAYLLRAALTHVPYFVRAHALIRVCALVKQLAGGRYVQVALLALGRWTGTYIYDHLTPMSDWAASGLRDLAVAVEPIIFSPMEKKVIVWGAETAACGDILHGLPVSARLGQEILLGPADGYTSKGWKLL

Binding result, binds:
CTGGATCGAAAAGTATCCACGTTTGTCTGAAAATAGTGGCC (ssDNA) [aptamer NS2-1], CAGGTACCACCTTCATGGGCGCGGAAGACGATGGTGTACTA (ssDNA) [aptamer NS2-2], ACGGGGCAGGATTGTCCCCGCGCCTGGTTGAAGGTAGTCGC (ssDNA) [aptamer NS2-3]
